In article PMC4323994 (Immunology and cell biology, 2014):
Where no end group is shown, it is not given here.

Legend:
[1] = target: HLA-DR molecule, DRB1*1101 (human); test: ELISA
[2] = target: HLA-DR molecule, DRB1*0401 (human); test: ELISA

Binder	IC50 [1] [nM]	IC50 [2] [nM]
QATFMVFQALAQYQKDAP (also: amino and carboxyl ends blocked) [C3d_(269–286)]	< 2000	
GKQLYNVEATSYALLALLQLKDFD (also: amino and carboxyl ends blocked) [C3d_(223–246)]	< 2000	< 2000
VPPVVRWLNEQRYYGGGY (also: amino and carboxyl ends blocked) [C3d_(248–265)]	< 2000	
